# Test results as given in the nanobody polyreactivity screen of Harvey et al. (2022).
# Assay: yeast display, Sf9 membrane polyspecificity reagent, FACS + sequencing; frameworks hold sequencing errors
# Method in brief: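 Genes from sorted yeast were amplified by colony PCR, read by MiSeq 2 × 250 sequencing and filtered on CDR length. These cells carried a synthetic nanobody library in Saccharomyces cerevisiae BJ5465 and were sorted by FACS into low and high (top ~1%) gates on anti-HA and streptavidin fluorescence. Polyreactivity is labelled according to the gate of origin.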
row,Sequence,polyreactivity (PSR sort gate)
1,QVQLEESGGGLVQAGGSLRLSCAASGITFTLNAMGWYRQAPGKERELVATINRGTGTNYADSVKGRFTISRDNAKYTVYLQMNSLKPEVTAVYYCAADHRGEYDYWGQGTQVTVSS,low polyreactivity
2,QVQLVESGGGLVQAGGSLRLSCAASGRIFSYYAMGWYRQAPGKERELVATINSGGSTNYADSVKGRFTISRDNAKNTVYLQMNSLKPVATAVYYCAASPVWWYDYWGQGTQVTVSS,low polyreactivity
3,QVQLVESGGGLVQAGGSLRLSCAASGSIFGGNAMGWYRQAPGKERELVAAISGSGGSTYYADSVKGRFTISRDNAKNTVYLQMNSLKPEDTAVYYCAAGIYRGRNYYYWGQGTQVTVSS,high polyreactivity
4,QVQLVESGGGLVQAGGSLRLSCAASGSTFKSYTMGWYRPAPGKERELVAAISGSGGRTYYADSVKGRFTISRDNAKNTVYLQMNSLKPEDTAVYYCAATGPYGFYWGQGTQVTVSS,high polyreactivity
5,QFQLVESGGGLVQAGGSLRLSSAPSGIIFPYYAMGWYRQAPGKERELVAAISRTGSTYYADSVKGRFTISRDNAKNTVYLQMNRLNPEVTAVYYCAARTYYSQGTSSVSLQQYGYWGEGTQVTVSS,low polyreactivity
6,QVQLVESGGGLVQAGGSLRLSCAASGSIFHYNAMGWYRQAPGKERELVAAITSGGSTYYADSVKGRFTISRDNAKKTVYLQMNSLKPEDTAVYYCATVFYRTRYVPYGYWGQGTQVTVSS,low polyreactivity
7,QVQLVESGGGLVQAGGSLRLSCAASGSTFGPYAMGWYRQAPGKERELVAGISYGGGTTFYADSVKGRFTISRDNAKNTVYLQMNSLKPEDTAVYYCAATYRPNRYLEGYWGQGTQVTVSS,high polyreactivity
8,QVQLVESGGGLVQAGGSLRLSCAASGSTFYYYAMGWYRQAPGKERELVAVISWGGGSTYYADSVKGRFTISRDNAKNTVYLQMNSLKPEDTAVYYCAAVYDEYQTTHEYDYWGQGTQVTVSS,low polyreactivity
9,QVQLVESGGGLVQAGGSLRLSCAASGSTFSVYAMGWYRQAPGKERELVAAISTSGGSTYYADSVKGRFTISRDNAKNTVYLQMNSLKTEDTAVYYCNAEYSGYIYPYSYPIYYWYDYWGQGTQVTVSS,high polyreactivity
10,QVQLVESGGGLVQAGGSLRLSCAASGRIFVPYLMGWYRQAPGKERELVASISDSDTSTYYADSVKGRFTISRDNAKNTVYLQMNCLKPEDTAVYYCNVDYWGQGTQVTVSS,low polyreactivity
11,QVQLVESGGGLVQAGGSLRLSCAASGITFVPYAMGWSRQAPGKERELVAAITWRGGSTYYADSVKGRFTISRDNAKNTVYLQMNSLKPEDTAVYYCAVKFRSSQYQLQYGSLGQGTQVTVSS,high polyreactivity
12,QVQLVESGGGLVQAGGSLRLSCAASGRTFARYVMGWYRQAPGKERELVAAINSGGTTYYADSVKGRFTISRDNAKNTVYLQMNSLKPEDTAVYYCNARRGHYAYDYWGQGTQVTLSS,high polyreactivity
13,QVQRVESGGGLVQAGRSLRLSCAASGTIFGPYAMGWYRQAPGKERELVAAITIGRDNTYYADSVKGRFTISRDNAKNTVYLQINSLKPEDTAVYYCAAKYYGGKPHYYEYYYWGQGTQVTVSS,low polyreactivity
14,QVQLVESGGGLVQAGGSLRLSCAASGFTFDFYAMGWYRQAPGKERELVADISSSDGSTYADSVKGRFTISRDNAKNTVYLQMNSLKPEDTAVYYCAADYDNQYDFSLDDEYWGQGTQVTVSS,low polyreactivity
15,QVQLVESGGGLVQAGGSLSLSCAASGLTFKWNAMGWYRQAPGKEREFVAANTKRAGSTYYADSVKGRFTISRDNAKNTVYIQMNSLKPEDTAVYYCAADDGYFYARYDYWGQGTQVTVSS,low polyreactivity
16,QVQLVESGGGLVQAGGSLRLRCAASGSTFEMYAMGWYRQEPGKERELVAAITWDTDSTYYADSVKGRFTISRDNAKNTVYLQMNSLKPEDTAVYYCNSQSGRASHYRGYGFDYWGQGTQVTVSS,high polyreactivity
17,QVQLVESGGGLVQAGGSLRLSCAASGSTFRYKTMGWYRQAPGKERELVAAISSRGTNTYYADSVKGRFTISRDNAKNTVYLQMNSLKPDDPAVYYCDTGYYVRMDWGQGTQVTVSS,high polyreactivity
18,QVQLVESGGGLVQAGRSLRLSCAASGFPFYQYAMGWYRQAPGQERELVAAITWSRGDTYYADSVKGRFTISRDNAKNTVYLQMNSLKPEDSAVFNCNADDRPRGPYYDSFDYRGDYWGQGTQVTVSS,low polyreactivity
19,QVQLVESGGCLVQAGGSLRLSCAASGFTFQKYAMGWYRQAPGKERELVAAISWSGSSTYYADSVKGRFTISRDNAKNTVYLQMNSLKPEDTAFYYCAADSYYIQERDYWGQGTQVTVSS,high polyreactivity
20,QVQLVESGGGLVQAGGSLRLSCAASGLTFYVYAMGWYRQAPGKEREFVAAISWSGTSTSYADSVKGRFTISRDNAKNTVYLQMNSLKPEDTAVYYCAADVHTPALYTYAAGDYWGQGTQVTVSS,low polyreactivity
21,QVQLVESGGGLVQAGGSLRLSCAASGSIFRYYAMGWYRQAPGKERELVAAINSRGGTTYYADSVKGRFTISRDNAKNTVYLQMNSLKPEDTAVYYCAAGYPPLHTSVQQTAHYGLDYWGQGTQVTVSS,high polyreactivity
22,QVQLVESGGGLVQAGGSLRLSCAASGLIFGYNAMGWYRQAPGKEREFVAGISVIDGRTYYADSVKGRFTISRDNAKNTVYLQMNSLKPEDTAVYYCAADRWYKYYFLTYGYWGQGTQVTVSS,low polyreactivity

row,Sequence,polyreactivity (PSR sort gate)
1,QVQLVESGGVLVQSGGSLRLSCAASGRTFWWYAMGWYRQAPGKERALVAGISSGGSTYYADSVKGRFTISRDNAKYTVYLQMNSLKPEDTAVYYCAKTYWYPWRASLWHEYDYWGQGTQVTVSS,low polyreactivity
2,QVQLVESGGGLVKAGGSLRLSCAASGLTLPANAMGWYRQAPGKEREFVAAISVGGDTTSYADSVKGRFTISRDNAKNTVYLQMNSLKPEDTAVYYCAADEIHDPRTYRGSAGDYWGQGTQVTVSS,low polyreactivity
3,QVQLVESGGGLVQAGGSLRLSCAASGRIFGYYARGWYRQAPGKEREFVAGITQRTDSTYYADSVKGRFTISRDNAKNTVYLQMNSLKPEDTAVYYCAARGYGGYHWGYYWGQGTQVTVSS,high polyreactivity
4,QVQLVESGGGLVQAGGSLRLSCAASGFTFPDYAMGWYRQAPGKERELVAAISSDGSTYYADSVKGPFTISRDNAKNTVYLQMNSLKPEDTAVYYCAAYVVWLYGDDYWGQGTQVTVSS,low polyreactivity
5,QVHLVESGGGIVQARGSLRLSCDASGFIFYDYAMGSYRLAPGKEWELVAAISKRGGSRYYADSVKGRFTISRDNAKNTVYLQMNSLKPEDTAVYYCATEVEPYAYGYWGQGTQVTVSS,high polyreactivity
6,QVQLVESGGGLVQAGGSLRLSCAASGSTFGDYAMGWYRQAPGKERELVAAISRSAGSTYYADSVKGRFTISRDNAKNTVYLQMNSLKPEDTAVYYCAAEYQYHWAYIYYYWGQGTQVTVSS,high polyreactivity
7,QVQLVESGGGLVQAGGSLRLRCAASGFIFRHNAMGWYRQAPGKAREFVAAISISGGSTYYADSVKGRFTISRDNAKNTVYLQMNSLKPEDTAVYYCNARSMGNTYLLYDYWGQGTQVTFSS,low polyreactivity
8,QVHLVESGGGLVQAGGSLRLSCAASGFIFSGYALGWKRQAPGKERELVAAITSSGDGTYYADSVKGRFTISRDNAKNTVYLQMNSLTPEDTAVYYCNAGRARYFWRTDRFDYWGQGTQVTVSS,high polyreactivity
9,QVQLVESGGGLVQAGGSLSLSCAASGRIFPTYTMGWYRQAPGKERELVAAINRGGGSTYYADSVKGRFTISRDIAMNTVYLQMYSLKAEDTAVYYCNARTYYRSYGYDYCGQGTQVTVSS,low polyreactivity
10,QVQLVESGGGLVQAGGSLRLSCAASGFTFWQYAMGWYRQAPGKERELVAAITWDGGSTYYADSVKGRFTISRDNAKNTVYLQMNSLKPEDTAVYYCAKLFGGTYYEYDYWGQGTQVTVSS,low polyreactivity
11,QVQLVESGGGLVQAGGSLRLSCAPSGYNFSKYAMGWYRQAPGKERELVAAITSGGGSTYYADSVKGRFTISRDNAKNTVYLQMNSLKPEDTAVYYCNAACRRIVGQTYDYWGQGTQVTVSS,high polyreactivity
12,QFHLLESGGRLDQAGGSLRLSCAASGIIFRGNAMGWYIQAPGKERELVAAISSGGSTYYADTVKGSFTISRDNAKNTVYLKMNCLKPEDTAVYYCNARWYFWGTLYGSWGQGTQVTVSS,high polyreactivity
13,QVQLVESGGGFVQAGGSLRLSCAASGFIFRVYAMGWYRPAPGKERELVAAISKRGGSTFYADSVKGRFTISRDNANNTVYLQMNSLKPEDTAVYDCAASARLGYDYWGQGTQVTVSS,high polyreactivity
14,QVQLVESGGGLVQAGGSLRLSCAASGRTFYHNTIGGYRQQPGKERELVAVINDSGTRTYYADSVKGRFTISRDNAKNTVYLQMNSLKPEDTAVYYCAARSYVGGAILGYWGQGTQVTVSS,high polyreactivity
15,QVQLVESGGGLVQAGGSLRLSCAASGSTFYPNPMGWYRQAPGKERELVAAISQRGGRTYYADSVKGRFTISRDNAKNTVYLQMNSLKPEDTAVYYCAATYQGYNSWYSFGYWGQGTQVTVSS,high polyreactivity
16,QVQLVESGGGLVQAGGSLRLSCAASGSILGGNAMGWYRQAPGKEWELVAAITFSGGGTYYADSVKGRFTSSRDNAKNTVYLQMNSLKPEDTAVYYCAADKDGYTYEFDYWGQGTQVTVSS,low polyreactivity
17,QVQLVESGGGLVQAGGSLRLSCAASGRTFATYAMGWYRQEPGKERELVAAISTSGGSTYYADSVKGRFTISRDNAKNTVYLQMNSLKPEDTAVYYCAAVLSWRGYTCPVYAFDYWGQGTQVTVSS,high polyreactivity
18,QVQLVESGGRLVQAGGSLRLSCAASGRTFKKYAMGWYRQAPGKERELVAAITGSGGSTYYADSVKGRFTISRDNAKNTVYLQMNSLKPEDTAVYYCAAYAYGVWHSQDGGNFWGQGTQVTVSS,low polyreactivity
19,QVQLVESAGGLVQAGGSLPLSCAASGFTFISNAMGWYRQSPAKERELVAAISSSGGRTYYAVSVKGRFTISRDNAKNTVYLQMNSVKPEDTAVYYSNADRSLLYSRKIEYDYWGQGTKVTVSS,low polyreactivity
20,QVQLVESGGGLVQAGGSLRLSCAASGLIFRTYTMGWYRQAPGKERELVATITRRGGTTYYADSVKGRFTISRDNAKNTVYLQMKSLKPEDTAVYYCAKSPYYTWKYDYWGQGTQVTVSS,high polyreactivity
21,QVQLVESGGGLVQAGGSLRLSCAASGSIFKDYAMGWYRQAPGKERELVASITSGGRTYADSVKGRFTISRDNAKNTVYLQMNSLKPEDTAVYYCNTAHSKAWQYDYWGQGTQVTVSS,high polyreactivity
